Data reported in the DeepSol protein solubility set.

assay: soluble on expression in E. coli; label from the status in PepcDB or PDB records

| Sequence | soluble on expression in E. coli |
| --- | --- |
| TADVRTAENMGVRAYTVATAITFQGSGSYRGERWVDSADIIRQIESLSAEMEPAVAKIGLIRDSDTLSLVVDCLKKVFPSIRIVWDPVLRASADSSAGQADRFNLEDITALSRIDFITPNLPEARHLLGCEPDDETLLDFYRRSGVGLVLKGGHAGESVVTDRIVYDGRCEALRLLRGGTGKHGTGCAHSTAFAAALALEQEPFTAAGMAQLYVSRLRERASGLLAMHKDLPVDPVVR | not soluble |
| TAQIKGLTQAQRNANDGISLAQTAEGALGEISNNLQRIRELAVQASNGTNTQTDRDALQAEVTQLQSEIQRVAEQTSFNGQKLLDGSFNGVQFQIGANAGETIGVSKIMNAQTASLGGSLTRTTSTIDATDLTKYDTAMAAGDLTINGVDVGKIDAASTAQERAAQLTEAINRVSSQTNVGASYDKTTGQVTLTSNAAIAVAGAANDATVAGWANNATTGTATTTTGINSLTVSSFTNAQQTITQIDNALKDINTARADLGAVQNRFTSTVANLQSMTENLSSALEHHHHHH | soluble |
| TAVSLEQLLIAREQRVALQQQCLHEYQQTLLSLTLTAVGPVKKNALLDYVFAKALANITACFNKLSVTATAQFIRPLQTGHEALFVLPIDAKILKRAMIELENSSPLARLWDIDVISQEGHYSRGEFGFAERTCLMCAESAKICARSRRHSIDDLLSEIHTRAQQ | not soluble |
| TEQATTTDELAFTRPYGEQEKQILTAEAVEFLTELVTHFTPQRNKLLAARIQQQQDIDNGTLPDFISETASIRDADWKIRGIPADLEDRRVEITGPVERKMVINALNANVKVFMADFEDSLAPDWNKVIDGQINLRDAVNGTISYTNEAGKIYQLKPNPAVLICRVRGLHLPEKHVTWRGEAIPGSLFDFALYFFHNYQALLAKGSGPYFYLPKTQSWQEAAWWSEVFSYAEDRFNLPRGTIKATLLIETLPAVFQMDEILHALRDHIVGLNCGRWDYIFSYIKTLKNYPDRVLPDRQAVTMDKPFLNAYSRLLIKTCHKRGAFAMGGMAAFIPSKDEEHNNQVLNKVKADKSLEANNGHDGTWIAHPGLADTAMAVFNDILGSRKNQLEVMREQDAPITADQLLAPCDGERTEEGMRANIRVAVQYIEAWISGNGCVPIYGLMEDAATAEISRTSIWQWIHHQKTLSNGKPVTKALFRQMLGEEMKVIASELGEERFSQGRFDDAARLMEQITTSDELIDFLTLPGYRLLA | soluble |
| TFFTATDGNHGRGVAWTANKLGQKSVVLMPKGSSEFRLNKIKGEGADASITDLNYDDAVRLANDYAEADDHGVMVQDTAWDGYEEIPAWIMQGYGTMAQEAIEQLKEYGVDRPTHVFVQAGVGSLAGAVQGYVASIYDECPITVVVEADEADCYYKSAEAGDGKPRFVGGDMPTIMAGLACGEPNTIGFEVLKNHAAAFVSAPDWVSAKGMRTLGNPLNGDEKVISGESGAVTTGLLVAAMEREDLADLRKDLKLDENSRILLISTEGDT | not soluble |
| TGAITVGNKNNDKLTLWTTPAPSPNCRLNAEKDAKLTLVLTKCGSQILATVSVLAVKGSLAPISGTVQSAHLIIRFDENGVLLNNSFLDPEYWNFRNGDLTEGTAYTNAVGFMPNLSAYPKSHGKTAKSNIVSQVYLNGDKTKPVTLTITLNGTQETGDTTPSAYSMSFSWDWSGHNYINEIFATSSYTFSYIAQE | soluble |
| TGCSVTATRAEEWSDGFNVTYSVSGSSAWTVNLALNGSQTIQASWNANVTGSGSTRTVTPNGSGNTFGVTVMKNGSSTTPAATCAGS | soluble |
| TGKIDGILSIGVDVTERVKWRKQIEASGARLKSMIDQTPAPTLVLMGDNLVIEQVNTSMLKLLGHEENIVGIPLLTLMPELKGQYIWEQVEKVYREGIPFDQSEVRVSHKRTGMMEDYYYNIAYRPLKED | not soluble |
| TKNNQQTTPQTNHFNVADPVNKVPNWRKLGPETQRELRDLLYPLDDTGYFIYKYGAISRYLQSQKELDELVDYRTVLPSTQKHFKYDSFNQSVLESKLRKWLMKAIKQHPYFQHFEFDPVLKAQYNINIPAQKITVNAVWFYKKDNDLTTGKPIRYWDQFEIKLKQ | soluble |
| TLAFCRFSAPGIYFLEKLFHPVASMLVRSTTFLNKHFAKKNHNISVDELSHALELTDKAEISEENNILEGIIRFGGETVKEVMTSRLDMVDLDVRTPFKEVMQCIIENAYSRIPIYSGSRDNIKGVLYIKDLLPHVNKGDNFRWQSLIRPAYFVPETKMIDDLLRDFQANKIHIAIVVDEFGGTSGLVTMEDIIEEIVGEIHDEYDD | not soluble |
| TLFDKIWDAHVVTTVEDGPTQLYIDRLYCHEVTSPQAFAGLRERGIKVLRPEKVFCMPDHNTPTHDQDKPIEDPISKTQVDTLTKNAKDFGLTHFGMMHPKNGIIHVVGPERALTLPGMTIVCGDSHTSTHGAMGAIAFGIGTSEVEMVLASQCILQSRPKT | not soluble |
| TLLPQVQVLSWDHYVASSPQIYEPSLMIVAQGSKLARLGPRTLEYGAGHYLVQALSVPFMCETFATREAPLLGVAVGIDRGVLGELVQSMGLAPDAEVQAQTPQSMTSAALDAPMRESVERLLHCLQDPLDAKVLGPARVREVLYTALRGPQAGVL | not soluble |
| TLTSTLASMMDALETALQPLKKYGFPVESVVLAFSLTLRLLPLMLNTVNEVLDARKARGVAFSLTALGTPVMIRSINRARSIADALMARGAGD | not soluble |
| TREFNDLCRPHMEALAILCGETVNLVIRVGTQARFLSSAESTGMLRVGDRQGQVLDAELTAGGRILLAELPRETLEQLYLRPVDLADDDREWGDRRLPADEFERFWRELSAARAVGFAVNVQQTEEGVAAFGVAIRNRARTAVGALTVAVPITRFRQHSQGPLVSQIKNAIRELEVDIADLEP | not soluble |
| TRINLTLVSELADQHLMAEYRQLPRVFGAVRKHVANGKRVRDFKISPTFILGAGHVTFFYDKLEFLRKRQIELIAECLKRGFNIKDTTVQDISDIPQEFRGDYIPHEASIAISQARLDEKIAQRPTWYKYYGKAIYA | soluble |
| TRNFEWIVGGNITRSRDKIKSLGGEEQIVLSYDNGVQMVNRVGESPYQFYGYQADGVYSTQAEADAANLSNRTGRRYNAGDVRFVDQNGDNRIDDKDRILLGSAAPSYFGGFYTQLKYKGFALSAEFSYSKDNIAYNAVRQQLEAVSTTNNQSIAAVNRWTVEGQKTDMPKATWKDPVGNSYFSSRWMEDASYLRMKNVTLSYTFSKTLWNFFRSGTIYVTGENLLTFTDYLGMDPEFSYSYAENMQGFDNAKLMQPKTVKMGVNLKF | not soluble |
| TSTKLNTTTSAAYLSTGIKALDSMLGSKGYQTGSQIIISGRSGTAKTLFATSFAQSAVRQGRKVLFISFEESPNDLIRHVKSINIDLMKYITKKKLHINSRRSVEMGLEDHIISIIELTEEKQFDVLILDPISALLDLGNTMEVKRLFIRFISYMKSLNKTLLFTELIPDYSKELTILGLSSLTETWIRLSNVESNGEFNRLIHIAKARGIKTSNQIKEFYVTDKGINIEAPYLGDNQMMFGSQKSA | not soluble |
| TTLSCKVTSVEAITDTVYRVRIVPDAAFSFRAGQYLMVVMDERDKRPFSMASTPDEKGFIELHIGASEINLYAKAVMDRILKDHQIVVDIPHGEAWLRDDEERPMILIAGGTGFSYARSILLTALARNPNRDITIYWGGREEQHLYDLCELEALSLKHPGLQVVPVVEQPEAGWRGRTGTVLTAVLQDHGTLAEHDIYIAGRFEMAKIARDLFCSERNAREDRLFGDAFAFI | soluble |
| TVIYDKNEKQAGTLYGQKGTYVELDAISDDLENAVISTEDRSFYKNSGINYKRMLLAIVTLGYSGGGSTITQQLAKNAFLTQEQTVKRKAREFFLALELTKKYSKKEILTMYLNNAYFGNGVWGVEDASQKYFGTSASRLTLDEAATLAGMLKGPGIYNPLYSI | not soluble |
| VARCQVPDCEADISELKGYHKRHRVCLRCATASFVVLDGENKRYCQQCGKFHLLPDFDEGKRSCRRKLERHNNRRKRKPVDKGGVA | soluble |
| VAVNNISNLINSRIRLTGISSGLDTDAIIEQLMSVERAKVDKIKQEKQILEWKRDIYRDIINKLRSITDEYFNVLKPKTNFTSQSAFTSFKISSSNESVVTVTANASAASKVHSITVHSLASAAKIVGTSGLVDGIKGSNAVNTLSLQGKEINVTLDGVTKTIALEDYTSLSDLETKLESALAKAFGTGKIDVVTTGGSIEFKCLLNGSTLSISDTANNYISSLGFSNGQKNFITGNSDVNSDFSLYTDGSFKITVGNGTAQTINISDATSIDDLVAKIQQAIDSNSELSGKVHVSNDGSKLTFISVSGETVKLTSGDSNNVLDKLGFSDGATITATSSTVIDLSGNEKGKTFIININGVDKIIEIDKDYNDLDELASYIQNQLGGTVNVTKDASGSRLVFSTGGADRLIFKKGPEDGLEKLGFTANDNRSNRISLTTKLDSLSTIFKNDLNIADPDANVVFTINGQTIDVGKTYANATLSDVMNAINSSSAGVKITYDSLNDRFIMESKTMGATSEIELTDTDPANGLLKAMGLIGGTYTAGTDAEFDLDGVTGMKRSTNEFTIEGVTYSLKGVSSEPVKIDVKADIDAVVENIKNFVNSYNEMLAKINSVLTEERYRDYLPLTDDQKKAMSEDDIKLWEQKAKSGLLRSDSILENIVTNLRRALYDKVEGCSLSLYQIGITTGSYQDKGKLVIDEEKLRAALTDNYDAVVQLFTQGSQYTYSEALNDPNKRAVRYKEAGIAQRIYDILQDNIRITRNANGKKGILLEKAGIAGDLTEYDNLIVNEIKAKETLIDEMLVKIYKKEEYYYSKFAAMEKMLDAMNSQSMWLTQQFSNYY | soluble |
| VAVTCRVLKLARQPYYRWRAHPVTDAEIVEAYRANALFDAHKDDPEFGYRYLVEEARDAGEPMAERTAWRICSQQGLWSVFGKKRGKNGKPGPPVHDDLVERDFTASEPNALWLSDITEHRTGEGKLYLCAIKDVFSNRIVGYSIDSRMKSRLATAALSSAVARRGDVDGCILHSDRGSQFRSRKFVHALHHHGMVGSMGRVGAAGDNAAMESFFSLLQKNVLDRRRWDTREQLRIAIVIWIERTYHRRRRQLTLGRLTPIEFEAIMTTPASQAA | soluble |
| VDLPGNDFDSNDFDAVDLWGADGAEGWTADPIIGVGSAATPDTGPDLDNAHGQAETDTEQEIALFTVTNPPRTVSVSTLMDGRIDHVELSARVAWMSESQLASEILVIADLARQKAQSAQYAFILDRMSQQVDADEHRVALLRKTVGETWGLPSPEEAAAAEAEVFATRYSDDCPAPDDESDPW | soluble |
| VDSKKRPGKDLDRIDRNILNELQKDGRISNVELSKRVGLSPTPCLERVRRLERQGFIQGYTALLNPHYLDASLLVFVEITLNRGAPDVFEQFNTAVQKLEEIQECHLVSGDFDYLLKTRVPDMSAYRKLLGETLLRLPGVNDTRTYVVMEEVKQSNRLVIKTR | soluble |
| VEAHPSLTLFSQLRIEHEDMAIAEDDWAWLRHKGHLRLGAALDETSPFNVRLDDENYEGITADVATLVGQLLGMRIKVVSFDTHADAVAALAAGKIDLLGSHYSSAGDSSLVLSQPYARDRLAVFKRMGEKRNSPEDLAGLSVAVAREHVGELRQRFPRARFVVFGSHDEAVAAVAFGHTDLYLDDVLSAYHRINRSYYGYVRFERFADARLEGGYGFLLRRGDTNLLRVVNSAIGAINQDRLESIARRWVGSGSLPTGQRIALTPQESRWIARHPVVRLVINDDLAPLAFFNSDETFSGIASDLLDMISRRTGLHFQVTPRSGGFPEQIGVLARKEADLAIMSRSSKREEMLRFTRSFLSTSYVLVTRADDKGRAEIPGSLDGKRIAIPAGHVGMQQVRERYPQASMVEVGVALDAMNLVYEGRADAAVVPLVTARYYIVRLFRERLAIADLVPIGAATAHFAVRRGDAELQSILDKALLSISPDDLSDIVNRWRSPPGMSGQT | soluble |
